Measured values as given in IntAct's records for PubMed 23612611.

B1: E3 ubiquitin-protein ligase CHIP (Mus musculus), Q9WUD1 (parent)
chain: MKGKEEKEGGARLGTGGGGSPDKSPSAQELKEQGNRLFVGRKYPEAAACYGRAITRNPLVAVYYTNRALCYLKMQQPEQALADCRRALELDGQSVKAHFFLGQCQLEMESYDEAIANLQRAYSLAKEQRLNFGDDIPSALRIAKKKRWNSIEERRIHQESELHSYLTRLIAAERERELEECQRNHEGHEDDGHIRAQQACIEAKHDKYMADMDELFSQVDEKRKKRDIPDYLCGKISFELMREPCITPSGITYDRKDIEEHLQRVGHFDPVTRSPLTQEQLIPNLAMKEVIDAFISENGWVEDY
partner: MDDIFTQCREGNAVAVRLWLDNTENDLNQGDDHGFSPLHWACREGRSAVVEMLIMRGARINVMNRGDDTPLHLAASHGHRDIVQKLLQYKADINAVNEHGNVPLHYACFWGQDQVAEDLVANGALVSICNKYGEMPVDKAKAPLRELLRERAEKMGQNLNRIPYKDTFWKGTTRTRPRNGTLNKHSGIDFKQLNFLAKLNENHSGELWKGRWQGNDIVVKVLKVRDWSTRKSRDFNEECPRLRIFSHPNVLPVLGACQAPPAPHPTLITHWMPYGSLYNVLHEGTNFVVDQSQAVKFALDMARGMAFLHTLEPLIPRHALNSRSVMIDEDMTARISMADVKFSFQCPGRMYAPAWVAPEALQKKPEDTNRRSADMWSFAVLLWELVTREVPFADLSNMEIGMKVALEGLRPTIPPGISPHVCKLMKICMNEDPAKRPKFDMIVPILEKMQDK

Variants of: B1
Conditions: with ilk_mouse Ilk

effect of a mutation on the interaction	Variant
decreasing interaction	K31A
